According to PMC8835842, “YdfD, a Lysis Protein of the Qin Prophage, Is a Specific Inhibitor of the IspG-Catalyzed Step in the MEP Pathway of Escherichia coli” (International Journal of Molecular Sciences, 2022):

B1: YdfD (MBP tag cleaved) (natural protein, E. coli BL21(DE3), UniProt P29010 1-63, looked up)
chain: MNSAFVLVLTVFLVSGEPVDIAVSVHRTMQECMTAATEQKIPGNCYPVDKVIHQDNIEIPAGL
notes: YdfD, lysis protein of the Qin cryptic prophage, 63 amino acids; ydfD amplified from the E. coli BL21(DE3) genome; No truncation is told for this construct; source: E. coli BL21(DE3), purified as MBP-YdfD (amylose resin), MBP cleaved by PreScission protease; not shown: MBP, N-terminal, cleaved
B2: IspG-His (enzyme, E. coli BL21(DE3), UniProt P62620 1-372, looked up)
chain: MHNQAPIQRRKSTRIYVGNVPIGDGAPIAVQSMTNTRTTDVEATVNQIKALERVGADIVRVSVPTMDAAEAFKLIKQQVNVPLVADIHFDYRIALKVAEYGVDCLRINPGNIGNEERIRMVVDCARDKNIPIRIGVNAGSLEKDLQEKYGEPTPQALLESAMRHVDHLDRLNFDQFKVSVKASDVFLAVESYRLLAKQIDQPLHLGITEAGGARSGAVKSAIGLGLLLSEGIGDTLRVSLAADPVEEIKVGFDILKSLRIRSRGINFIACPTCSRQEFDVIGTVNALEQRLEDIITPMDVSIIGCVVNGPGEALVSTLGVTGGNKKSGLYEDGVRKDRLDNNDMIDQLEARIRAKASQLDEARRIDVQQVEK
notes: ispG amplified from the E. coli BL21(DE3) genome; also called His-tagged ispG; GcpE; source: E. coli BL21(DE3); coexpressed with YdfD constructs, in lysate; and purified (Ni-NTA, Superdex 200)

Columns and labels:
IspG-His = target: B2; assay: ITC; IspG (1.1 mM) injected into YdfD in the cell, 2 μL injections at 120 s spacing, 25 °C, 20 mM Tris, 150 mM NaCl, pH 8.0; one-site binding fit; details: both partners purified
YdfD (MBP tag cleaved) = target: B1; assay: as above; details: both partners purified

Binder: B1
- Kd (IspG-His): 18.4 µM

Binder: B2
- dH (YdfD (MBP tag cleaved)): 1.57 kcal/mol
- stoichiometry N (YdfD (MBP tag cleaved)): 0.63
